biological target: T1, native human ESRRG protein (Homo sapiens, UniProt P62508); assay: peptide microarray screening for ESRRG binding (Iteration 1 and 2); details: Iteration 1 primary screen; fluorescence intensity units
T1 sequence (P62508 1-458): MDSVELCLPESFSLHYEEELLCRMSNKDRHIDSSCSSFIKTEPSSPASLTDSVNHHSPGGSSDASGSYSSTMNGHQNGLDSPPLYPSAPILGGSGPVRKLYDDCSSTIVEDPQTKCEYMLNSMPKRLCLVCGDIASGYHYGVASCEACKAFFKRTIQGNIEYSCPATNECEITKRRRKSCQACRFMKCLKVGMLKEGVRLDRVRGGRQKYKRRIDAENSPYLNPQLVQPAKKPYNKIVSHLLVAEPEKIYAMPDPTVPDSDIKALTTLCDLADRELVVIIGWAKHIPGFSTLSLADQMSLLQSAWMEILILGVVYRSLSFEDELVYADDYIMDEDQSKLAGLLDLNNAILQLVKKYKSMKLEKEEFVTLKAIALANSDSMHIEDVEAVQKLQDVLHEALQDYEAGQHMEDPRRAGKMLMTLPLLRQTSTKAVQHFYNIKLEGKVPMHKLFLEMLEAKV
Description: The BLOSUM62 matrix was divided into Tiers based, with Tier 1 comprising “most conserved” (lowest penalty) and Tier 3 comprising “least conserved” (highest penalty) mutations observed in nature. Sequences for microarray production for the primary stage (Iteration 1) of screening for protein binding were created by permuting AA positions 4 and/or 5 only (i.e., core of sequence) of parent 8-mer peptides using Tier 1 and Tier 3 substitutions. This allows the systematic variation of the sequence in order to identify the most important motif within the larger candidate ligand sequence that is needed for binding the target protein. All peptides on the array were grown from the C→N terminal, with the exposed N-terminal amino acid masked by an acetyl group to prevent folding of the sequence and enable full presentation of the peptide to its target protein.
Screening was carried out typically by hybridization of the protein (1 μg/mL) against the array for 1 h at 4° C.; detection of bound protein was carried out using a fluorescently labeled anti-ESRRG mAb. (Direct labeling of ESRRG and alternative detection strategies are equally valid).
Highest binders (based on relative fluorescence signal) were selected and iteratively sequence expanded and arrayed (Iteration 2); and ESRRG binding sequences were selected as above. For iterative arrays, the core positions (AA 4 and 5) were kept unchanged while the outer amino acids (2, 3, 6, and/or 7) were permuted using Tier 3 substitutions.
Daughter candidate ligands and their new Tier 3 and/or Tier 1 based combinations were synthesized in situ on an addressable peptide microarray and screened against native human ESRRG protein in order to determine sequences that bind to this protein. Bound protein was detected by a fluorescently labeled anti-ESRRG mAb. Results are obtained in fluorescence intensity units which were used to rank the peptide ligands. Excess (100×) competing biological matrices (human serum, HSA/BSA or bacterial protein extract) were used as backgrounds to select for specific ligands to the protein. Other competing proteins can be added to background for specificity selection and directed evolution of ligands.
Iterative sequence expansion and arraying of 10 highest binding ligands to ESRRG from Iteration 1 was carried out and the new peptide sequences were synthesized on an array and screened against the protein, as described above. In this step, the central 2 amino acids (core) in peptide sequences were maintained unchanged while outlying amino acids (2, 3, 6, and 7) were permuted (using Tier 1 and Tier 3 substitutions) in a ‘cipher’ or ‘combination’ lock approach. Further affinity maturation of sequence was observed, with multifold enhancement in binding signal of Iteration 2 sequences (i.e., Granddaughters) compared to their respective parents from Iteration 1 (i.e., Daughters) on the same array.

Q: LHLKGSQT was tested. Which “Sample A (Bkgd) Signal” value did it give?
A: The value was 6.97.

Q: With LHLRYSQT as the sequence, how does the “Sample A (Bkgd) Signal” value read?
A: Its value is 33.10.

Q: Which “Sample A (Bkgd) Signal” value does the source give for LLHLQKSQ here?
A: The value was 14.95.

Q: For NIKVHANN, which “Sample A (Bkgd) Signal” value is on record?
A: Its value is 9.00.

Q: With NNSWSLHL as the sequence, how does the “Sample A (Bkgd) Signal” value read?
A: The value was 23.54.

Q: Which results are given for NSLLQHLL?
A: Sample A (Bkgd) Signal: 2.42; Sample B (Probe) Signal: 9,739.76

Q: How did the “Sample A (Bkgd) Signal” value turn out when NSLRQHLL was run?
A: Its value is 47.85.

Q: And the “Sample B (Probe) Signal” value?
A: The value was 3,242.55.

Q: For NSLRSHLL, which “Sample A (Bkgd) Signal” value is on record?
A: The value was 20.67.

Q: What about the “Sample B (Probe) Signal” value of the same sequence?
A: Its value is 1,673.50.

Q: Which “Sample A (Bkgd) Signal” value does the source give for NSLSWHLL here?
A: Its value is 25.76.

Q: What about the “Sample B (Probe) Signal” value of the same sequence?
A: Its value is 1,042.20.

Q: With RKAIFGKY as the sequence, how does the “Sample A (Bkgd) Signal” value read?
A: Its value is 23.63.

Q: RKALVGKY was tested. Which “Sample A (Bkgd) Signal” value did it give?
A: Its value is 28.08.

same assay, conditions: Iteration 2 iterative screen; fluorescence intensity units

Q: Which results are given for LFKLKQND?
A: Sample A (Bkgd) Signal: 366.58; Sample B (Probe) Signal: 1,857.96

Q: Which results are given for LFLLQQDD?
A: Sample A (Bkgd) Signal: 219.12; Sample B (Probe) Signal: 2,423.10

Q: How did the “Sample A (Bkgd) Signal” value turn out when LILLQQLD was run?
A: Its value is 177.10.

Q: And the “Sample B (Probe) Signal” value?
A: The value was 1,251.12.

Q: Which “Sample A (Bkgd) Signal” value does the source give for MYKLKQDN here?
A: The value was 184.58.

Q: How did the “Sample A (Bkgd) Signal” value turn out when NFNYLLPH was run?
A: The value was 470.56.

Q: What about the “Sample B (Probe) Signal” value of the same sequence?
A: The value was 13,817.90.

Q: What does the source list for NLLLKHPD?
A: Sample A (Bkgd) Signal: 216.15; Sample B (Probe) Signal: 2,297.98

Q: With NNNFSLHM as the sequence, how does the “Sample A (Bkgd) Signal” value read?
A: The value was 199.94.

Q: And the “Sample B (Probe) Signal” value?
A: Its value is 4,374.19.

Q: For NNSYPRHR, which “Sample A (Bkgd) Signal” value is on record?
A: The value was 731.12.

Q: What about the “Sample B (Probe) Signal” value of the same sequence?
A: The value was 3,422.79.

Q: For PDSYPRWG, which “Sample A (Bkgd) Signal” value is on record?
A: The value was 288.88.

Q: And the “Sample B (Probe) Signal” value?
A: Its value is 5,591.60.

Q: PFKLKQGN was tested. Which “Sample A (Bkgd) Signal” value did it give?
A: The value was 1,523.23.

Q: What about the “Sample B (Probe) Signal” value of the same sequence?
A: The value was 6,982.96.

Q: How did the “Sample A (Bkgd) Signal” value turn out when PGKGHFPI was run?
A: The value was 260.71.

Q: Which “Sample A (Bkgd) Signal” value does the source give for PWKLKQDP here?
A: The value was 197.52.

Q: What about the “Sample B (Probe) Signal” value of the same sequence?
A: The value was 1,339.15.

Q: For RLLHYGSY, which “Sample A (Bkgd) Signal” value is on record?
A: The value was 290.67.

Q: And the “Sample B (Probe) Signal” value?
A: Its value is 1,203.13.

Q: RRSYPRGR was tested. Which “Sample A (Bkgd) Signal” value did it give?
A: The value was 445.58.

Q: What about the “Sample B (Probe) Signal” value of the same sequence?
A: The value was 1,661.87.

Q: How did the “Sample A (Bkgd) Signal” value turn out when TGKLKQDG was run?
A: Its value is 209.87.

Q: And the “Sample B (Probe) Signal” value?
A: The value was 2,464.29.

Q: Which results are given for VLLHYGLY?
A: Sample A (Bkgd) Signal: 347.96; Sample B (Probe) Signal: 1,796.19

Q: With WANYLLPP as the sequence, how does the “Sample A (Bkgd) Signal” value read?
A: Its value is 182.90.

Q: What about the “Sample B (Probe) Signal” value of the same sequence?
A: The value was 2,860.10.

Q: Which results are given for WGKLKQGE?
A: Sample A (Bkgd) Signal: 209.10; Sample B (Probe) Signal: 1,231.15

Q: For WIKLKQND, which “Sample A (Bkgd) Signal” value is on record?
A: The value was 181.65.

Q: And the “Sample B (Probe) Signal” value?
A: The value was 2,343.96.

Q: WLLLKHGL was tested. Which “Sample A (Bkgd) Signal” value did it give?
A: Its value is 222.13.

Q: For WNSYPRND, which “Sample A (Bkgd) Signal” value is on record?
A: Its value is 292.56.

Q: And the “Sample B (Probe) Signal” value?
A: The value was 2,198.94.

Q: How did the “Sample A (Bkgd) Signal” value turn out when WRSYPRRA was run?
A: The value was 619.96.

Q: And the “Sample B (Probe) Signal” value?
A: The value was 2,611.56.

Q: YFLLQQGP was tested. Which “Sample A (Bkgd) Signal” value did it give?
A: Its value is 202.29.

Q: How did the “Sample A (Bkgd) Signal” value turn out when YHNYLLHP was run?
A: The value was 240.19.

Q: What about the “Sample B (Probe) Signal” value of the same sequence?
A: The value was 1,309.00.

— patent US20130053541A1, “METHODS FOR DISCOVERING MOLECULES THAT BIND TO PROTEINS” (LYNNTECH, INC., priority 2011, published 2013)
